In experiment [1] the test system is C57/B6 and SJL mice lymph node cells. Description: Immunization and T cell proliferation assay, non-diabetes prone control mice (Example 11). In kind it is in vivo, mouse. The conditions noted are these: 50 μg sc in complete Freund's adjuvant. The procedure:
(§1) Recombinant truncated p69 was prepared by expression of a portion of the cDNA of IS4. The cDNA was cut a few nucleotides downstream of the 3' terminal of exon 3 and was subcloned into the PET™ expression system according to the manufacturer's recommendations (Novagen Inc., Madison, Wis.). The truncated protein contains 100 amino acids and is essentially identical with the murine molecule.
(§2) Antigens were injected subcutaneously in complete Freunds' adjuvant, and local lymph nodes and blood samples were collected 10 days later. Triplicate cultures of 2×10^5 lymph node cells were incubated for 5 days in serum-free HGM-af Medium™ (Promo Cell, Heidelberg, Germany) in the presence of 1 μg of protein or synthetic peptide as recall antigen. Six hours before harvesting, 1 μCi ^3 H-thymidine (6.7 Ci/mmol) was added to the wells, and isotope incorporation was analysed by liquid scintillation counting. Values are expressed as mean counts per minute ± standard deviation (mean cpm ± SD).
(§3) Young male NOD mice (H2^G7, IE^-/-) received a single immunization with truncated p69 (as encoded by IS4 cDNA) in complete adjuvant, and antibody and T cell proliferative responses were measured 8-10 days later. MHC disparate C57/B6 (H2^b, IE^-/-) and SJL (H2^s, IE^-/-) mice served as non-diabetes prone controls (FIG. 31).

The subject of experiment [2] is C57/B6 and SJL mice. Nature of the experiment: Serum antibodies to BSA and p69 by fluoroimmunoassay, control mice (Example 11). Type of experiment: in vivo, mouse. The conditions noted are these: 50 μg sc in complete Freund's adjuvant. The procedure: (§4) Male non-obese diabetic mice (NOD, 6-7 weeks old) were immunized with 50 μg BSA, ABBOS-short peptide ([…]), recombinant truncated p69 or p69 T cell epitope peptide `Tep69` ([…]) (10). Recombinant truncated p69 was prepared by expression of a portion of the cDNA of IS4. The cDNA was cut a few nucleotides downstream of the 3' terminal of exon 3 and was subcloned into the PET™ expression system according to the manufacturer's recommendations (Novagen Inc., Madison, Wis.).
(§5) Antigens were injected subcutaneously in complete Freunds' adjuvant, and local lymph nodes and blood samples were collected 10 days later. […] Six hours before harvesting, 1 μCi ^3 H-thymidine (6.7 Ci/mmol) was added to the wells, and isotope incorporation was analysed by liquid scintillation counting. Values are expressed as mean counts per minute ± standard deviation (mean cpm ± SD).
(§6) Serum antibodies to BSA and p69 were measured by particle concentration fluoroimmunoassay, as described (11). […] Bound fluorescence was read by an automated ScreenMachine™ instrument (IDEXX, Portland, Me.). Data are expressed in kilofluorescence units relative to a standard mouse serum analyzed in parallel within each assay plate.
(§7) Young male NOD mice (H2^G7, IE^-/-) received a single immunization with truncated p69 (as encoded by IS4 cDNA) in complete adjuvant, and antibody and T cell proliferative responses were measured 8-10 days later. […]

Experiment [3] deals with NOD mice lymph node cells. Description: Immunization and T cell proliferation assay, NOD mice (Example 11). Type of experiment: in vivo, mouse. The note with it: 50 μg sc in complete Freund's adjuvant, recall with 1 μg antigen in vitro. The procedure:
as §1, §2, §3

In experiment [4] the test system is NOD mice. Description: Serum antibodies to BSA and p69 by fluoroimmunoassay, NOD mice (Example 11). Type of experiment: in vivo, mouse. The note with it: 50 μg sc in complete Freund's adjuvant. The method, then: as §4, §5, §6, §7
The test system of experiment [5] is PBMC from children with recent onset diabetes. Nature of the experiment: T cell proliferation assay with BSA and rec-p69, patients (Example 3). In kind it is cell-based, human. The conditions noted are these: 1 μg antigen. The procedure:
(§8) Cultures containing 5×10^4 cells were incubated for 7 days at 37° C. in serum-free HL-1 medium (Ventrex, Portland, Me.) containing 1 μg antigen per well for test samples.
(§9) Control cultures were treated with 1 μg human, chick or horse albumin or an equivalent volume of control recombinant antigen prepared from lysates of E. coli carrying wild type plasmid.
(§10) After an overnight pulse of 1 μci ^3 H thymidine, cultures were harvested and submitted to liquid scintillation counting. Proliferation was expressed as cpm ^3 HTdR×10^-3.
(§11) A parallel set of cell cultures was incubated with the same test antigens or control agents in the presence of 10 U human IL2.

The test system of experiment [6] is PBMC from healthy subjects. Nature of the experiment: T cell proliferation assay with BSA and rec-p69, healthy subjects (Example 3). Type of experiment: cell-based, human. The note with it: with or without IL2. The procedure: as §8, §9, §10, §11
[7] abbreviates: listed as recombinant truncated p69.

B1: ovalbumin (protein, UniProt P01012 2-386, looked up)
Ovalbumin: GSIGAASMEFCFDVFKELKVHHANENIFYCPIAIMSALAMVYLGAKDSTRTQINKVVRFDKLPGFGDSIEAQCGTSVNVHSSLRDILNQITKPNDVYSFSLASRLYAEERYPILPEYLQCVKELYRGGLEPINFQTAADQARELINSWVESQTNGIIRNVLQPSSVDSQTAMVLVNAIVFKGLWEKAFKDEDTQAMPFRVTEQESKPVQMMYQIGLFRVASMASEKMKILELPFASGTMSMLVLLPDEVSGLEQLESIINFEKLTEWTSSNVMEERKIKVYLPRMKMEEKYNLTSVLMAMGITDVFSSSANLSGISSAESLKISQAVHAAHAEINEAGREVVGSAEAGVDAASVSEEFRADHPFLFCIKHIATNAVLFFGRCVSP
notes: bona fide non-self control antigen
As for B1, the “T cell proliferative response after immunisation” value in experiment [1] is recorded as “comparable responses”. The “antibody response after immunisation (anti-p69 or anti-BSA)” value in experiment [2] was “comparable responses”.

B2: truncated p69: 100 amino acid truncated p69 encoded by clone IS4 cDNA, contains Tep69 region, SEQ ID No. 41 (protein)
chain: MSGHKCSYPWDLQDRYAQDKSVVNKMQQKYWETKQAFIKATGKKEDEHVVASDADLDAKLELFHSIQRTCLDLSKAIVLYQKRICSF
On to B2, for which the “T cell proliferative response after immunisation” value was “Vigorous p69-specific antibody and T cell responses” in experiment [3]; “vigorous B- and T cell responses” in experiment [3] (setting [7]); “not in C57/B6 or SJL strains” in experiment [1]; “essentially no responses” in experiment [1] (setting [7]). Further, the “antibody response after immunisation (anti-p69 or anti-BSA)” value is “Vigorous p69-specific antibody and T cell responses” in experiment [4]; “vigorous B- and T cell responses” in experiment [4] (setting [7]); “not in C57/B6 or SJL strains” in experiment [2].

B3: rec-p69: recombinant human islet cell antigen p69 expressed in E. coli, SEQ ID No. 2 (protein)
chain: MSGHKCSYPWDLQDRYAQDKSVVNKMQQKYWETKQAFIKATGKKEDEHVVASDADLDAKLELFHSIQRTCLDLSKAIVLYQKGICFLSQEENELGKFLRSQGFQDKTRAGKMMQATGKALCFSSQQRLALRNPLCRFHQEVETFRHRAISDTWLTVNRMEQCRTEYRGALLWMKDVSQELDPDLYKQMEKFRKVQTQVRLAKKNFDKLKMDVCQKVDLLGASRCNLLSHMLATYQTTLLHFWEKTSHTMAAIHESFKGYQPYEFTTLKSLQDPMKKLVEKEEKKKINQQESTDAAVQEPSQLISLEEENQRKESSSFKTEDGKSILSALDKGSTHTACSGPIDELLDMKSEEGACLGPVAGTPEPEGADKDDLLLLSEIFNASSLEEGEFSKEWAAVFGDGQVKEPVPTMALGEPDPKAQTGSGFLPSQLLDQNMKDLQASLQEPAKAASDLTAWFSLFADLDPLSNPDAVGKTDKEHELLNA
As to B3, the “proliferative response of patient samples” value in experiment [5] (absence of IL2) was “at best a small proliferative response”; in experiment [5] (absence of IL2, listed as recombinant human p69 protein), “little or no proliferative response”; in experiment [5] (presence of 10 U IL2, listed as recombinant human p69 protein), “full proliferative response”. Moreover, the “proliferative response of samples from healthy subjects” value in experiment [6] was “no significant proliferative response”.
